Source: patent publication US20230181748A1 (published 2023)
Read-outs that look alike come from different tables or passages of the source. Each block holds one binder with its values, some of them ahead of it. Non-standard residues stand in square brackets, D forms with d. No end group written: not given here. pomalidomide = small molecule targeting Cereblon, fused after the C-terminal end; Hyp = O=C(O)[C@@H]1C[C@@H](O)CN1

Experiments:
Assay in all cases: MST
[1] = target: T1, atto-633-labeled preformed tau aggregates (UniProt P10636 1-441, atto-633 label, site not stated)
T1 sequence (P10636 other isoform, or with tags, fused parts or gaps): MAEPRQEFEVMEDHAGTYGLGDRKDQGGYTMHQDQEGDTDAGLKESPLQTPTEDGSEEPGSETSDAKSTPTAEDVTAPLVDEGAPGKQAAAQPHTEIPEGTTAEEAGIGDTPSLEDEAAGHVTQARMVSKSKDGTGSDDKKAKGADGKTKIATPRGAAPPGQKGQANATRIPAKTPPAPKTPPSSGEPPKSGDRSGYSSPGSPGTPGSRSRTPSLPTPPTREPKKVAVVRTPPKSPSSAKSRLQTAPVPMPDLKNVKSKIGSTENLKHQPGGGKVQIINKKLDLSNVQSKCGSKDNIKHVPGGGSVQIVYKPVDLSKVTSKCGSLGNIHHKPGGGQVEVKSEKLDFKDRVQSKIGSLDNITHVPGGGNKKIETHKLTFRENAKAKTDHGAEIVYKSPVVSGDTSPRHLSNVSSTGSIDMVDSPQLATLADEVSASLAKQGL

[2] = target: T1, atto-633-labeled preformed tau …; remark: listed apart in the source
[3] = target: preformed, sonicated Aβ aggregates (UniProt P05067 672-713)
Chain of preformed, sonicated Aβ aggregates (P05067 672-713): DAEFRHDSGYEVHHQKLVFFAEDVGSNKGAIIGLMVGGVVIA

[4] = target: T1, atto-633-labeled preformed tau …; remark: listed apart in the source
[5] = target: atto-633-labeled tau monomers (UniProt P10636 1-441, atto-633 label, site not stated)
Chain of atto-633-labeled tau monomers (P10636 other isoform, or with tags, fused parts or gaps): as the sequence (P10636 other isoform, or with tags, fused parts or gaps) above

Binder: WQIVYKGSVWMINKGSGSNLLRLTGW [HET_JAV]
- Kd [1]: 2.2 µM

Binder: MVWGVVGSKLWFFA [AbCap_3]
- Kd [3]: 4.94 µM
- Kd [4]: 4.65 µM

Binder: WQIVYKGSVWMINK-pomalidomide (also: pomalidomide link chemistry not described) [HET-pomalidomide]
- Kd [1]: 4.8 µM
- Kd [5]: ~10.9 µM

Binder: MVWGVVGSKWVFFA [AbCap_4]
- Kd [3]: 1.55 µM

Further lines, results first:

- Kd [2]: 3.3 µM
Binder: WQIVYKGSVWMINKGSGSALA[Hyp]YIP [HET fused to the VHL-moiety]

- Kd [3]: 6.08 µM
Binder: GWVVIAGSKLKFFA [AbCap_19]

- Kd [2]: ~3.3 µM
Binder: WQIVYKGSVWMINK [HET]
